The source of these data is PMC5657976.

The target of experiment [1] is GST-linked titin ZIg9/ZIg10 (human) (UniProt Q8WZ42). Kind of experiment: SPR; Nicoya OpenSPR, GST-linked titin ZIg9/ZIg10 immobilised on an Au-GST chip; obscurin Ig58/Ig59 injected at 50 ul/min; 20 mM Tris pH 7.5, 50 mM NaCl; 27°C (methods; 22°C in the legend of S11 Fig); 1:1 interaction model. (SPR reads the build-up and loss of mass on a sensor chip optically.)
Experiment [2] deals with GST-obscurin-Ig58/Ig59^WT (human) (UniProt Q5VST9). Description: pull-down; 12 ug GST fusion protein on glutathione-Sepharose with 5 ul of the translation reaction; 10 mM Tris-HCl pH 7.9, 150 mM NaCl, 0.5% NONIDET P-40, 1 mM DTT, 1.5 hrs at 4°C; anti-myc Western blot, densitometry normalised to GST protein.

For orientation: Kd means the free concentration of one partner at which half of the binding sites on the other are occupied at equilibrium, for simple one-to-one binding. Higher therefore signals weaker binding. In experiment [1], “obscurin Ig58/Ig59 p.Arg4444Trp (domain or fragment)” displayed a Kd of 1.6 µM.

The substance “myc-tagged titin domains ZIg9/ZIg10 (from UniProt Q8WZ42-12 1-35991) (domain or fragment)” gave a bound fraction, fold over GST-Ig58/Ig59^MUT in experiment [2] of 2 fold.

In the case of “obscurin Ig58/Ig59 (wild type) (from UniProt Q5VST9 1-7968) (domain or fragment)”, the Kd in experiment [1] amounted to 0.108 µM.
